Experimental data as given in US6833355 (HANSA MEDICAL, dated 2004).

B1: COOH-terminal fragment of NPM, in vitro translated and 35S-methionine-labelled (other)
chain: GSKVPQKKVKLAADEDDDDDDEEDDDEDDDDDDFDDEEAEEKAPVKKSIRDTPAKNAQKSNQNGKDSKPSSTPRSKGQESFKKQEKTPKTPKGPSSVEDIKAKMQASIEKGGSLPKVEAKFINYVKNCFRMTDQEAIQDLWQWRKSL
modifications: 35S-methionine label
notes: domain: COOH-terminal half; also called COOH-terminal peptide; COOH-terminal half of NPM
B2: protein H of Streptococcus pyogenes, COOH-terminally truncated fragment expressed by and purified from E. coli (305 amino acids) (other)
chain: EGAKIDWQEEYKKLDEDNAKLVEVVETTSLENEKLKSENEENKKNLDKLSKENQGKLEKLELDYLKKLDHEHKEHQKEQQEQEERQKNQEQLERKYQREVEKRYQEQLQKQQQLETEKQISEASRKSLSRDLEASRAAKKDLEAEHQKLEAEHQKLKEDKQISDASRQGLSRDLEASRAAKKELEANHQKLEAEHQKLKEDKQISDASRQGLSRDLEASRAAKKELEANHQKLEAEAKALKEQLAKQAEELAKLRAGKASDSQTPDTKPGNKAVPGKGQAPQAGTKPNQNKAPMKETKRQLPSTG
notes: 42-346 is the same stretch counted from the first Met of the entry; Depending on the assay, protein H was coupled to CNBr-Sepharose, labelled with 125I (Bolton-Hunter), biotinylated or unlabelled; also called recombinant protein H; soluble protein H

How the values were obtained:
[1] = biological target: B2; test: Affinity chromatography of the 35S-labelled in vitro translated peptide on protein H-Sepharose, then SDS-PAGE and autoradiography
[2] = biological target: actin from porcine heart (Sigma) (porcine, UniProt B6VNT8 3-377); test: SPR (BIACORE X), protein H over immobilised actin; mean ± SD of three experiments

| Binder | binding result [1] | Ka [2] [M⁻¹] | Kd [2] [nM] | koff [2] [s⁻¹] | kon [2] [M⁻¹ s⁻¹] |
| --- | --- | --- | --- | --- | --- |
| B1 | no binding |  |  |  |  |
| B2 |  | 1.7e+06 | 600 | 0.0015 | 2500 |
